Where a chain is given by its changes, count along the chain named. Names may count otherwise. Blank lines part the entries; values can stand above or below the binder they belong to.
Columns and labels:
[1] = target: FimV_(SoHubP), C-terminal FimV domain of S. oneidensis HubP (S. oneidensis); test: interferometric scattering mass spectrometry
[2] = target: FimV_(SoHubP), C-terminal FimV domain of S. oneidensis HubP (S. oneidensis); test: BLI

stoichiometry N (GGDEF per FimV (2:2 complex)) [1]: 1
Kd [2]: 200 nM
B1: MBP-GGDEF_(SoPdeB), GGDEF domain of S. oneidensis PdeB, wild type (domain or fragment)
chain: RSLAVCYLDLEQFKLINDSCGHTAGDRMLAMVARAIQSCLGPQELLARIGGDEFGLVICDRTALAVAQLLKQIIAQVSLQVLHDKNCNYKVGLSIGVAFGRAPYINAQELLKDADIACIAAKAKGTNQIHIYDD

fold increase of KD against wild type [2]: 10 fold
B2: SoGGDEF_(PdeB) K577S (domain or fragment)
chain: B1 chain with K124S

fold increase of KD against wild type [2]: 100 fold
B3: SoGGDEF_(PdeB) K575S (domain or fragment)
chain: B1 chain with K122S

Reference: article doi:10.1101/2021.08.12.456111
